B1: Cet1(201-549)p (Saccharomyces cerevisiae S288C) (protein)
chain: ANAAVDNIFEEKATLQSKKNNIKRDLEVLNEISASSKPSKYRNVPIWAQKWKPTIKALQSINVKDLKIDPSFLNIIPDDDLTKSVQDWVYATIYSIAPELRSFIELEMKFGVIIDAKGPDRVNPPVSSQCVFTELDAHLTPNIDASLFKELSKYIRGISEVTENTGKFSIIESQTRDSVYRVGLSTQRPRFLRMSTDIKTGRVGQFIEKRHVAQLLLYSPKDSYDVKISLNLELPVPDNDPPEKYKSQSPISERTKDRVSYIHNDSCTRIDITKVENHNQNSKSRQSETTHEVELEINTPALLNAFDNITNDSKEYASLIRTFLNNGTIIRRKLSSLSYEIFEGSKKVM
notes: The kinetic parameters determined for ATP hydrolysis by Cet1(201-549)p; His-tag; made in house; host or cells: Escherichia coli BL21(DE3)
B2: Cet1p (Saccharomyces cerevisiae S288C) (protein)
chain: MSYTDNPPQTKRALSLDDLVNHDENEKVKLQKLSEAANGSRPFAENLESDINQTETGQAAPIDNYKESTGHGSHSQKPKSRKSSNDDEETDTDDEMGASGEINFDSEMDFDYDKQHRNLLSNGSPPMNDGSDANAKLEKPSDDSIHQNSKSDEEQRIPKQGNEGNIASNYITQVPLQKQKQTEKKIAGNAVGSVVKKEEEANAAVDNIFEEKATLQSKKNNIKRDLEVLNEISASSKPSKYRNVPIWAQKWKPTIKALQSINVKDLKIDPSFLNIIPDDDLTKSVQDWVYATIYSIAPELRSFIELEMKFGVIIDAKGPDRVNPPVSSQCVFTELDAHLTPNIDASLFKELSKYIRGISEVTENTGKFSIIESQTRDSVYRVGLSTQRPRFLRMSTDIKTGRVGQFIEKRHVAQLLLYSPKDSYDVKISLNLELPVPDNDPPEKYKSQSPISERTKDRVSYIHNDSCTRIDITKVENHNQNSKSRQSETTHEVELEINTPALLNAFDNITNDSKEYASLIRTFLNNGTIIRRKLSSLSYEIFEGSKKVM
notes: the two truncated proteins were as active as full-length Cet1p in hydrolyzing ATP; His-tag; made in house; host or cells: Escherichia coli BL21(DE3)

What was measured:
[1] = substrate: Nc1ncnc2c1ncn2[C@@H]1O[C@H](COP(=O)(O)OP(=O)(O)OP(=O)(O)O)[C@@H](O)[C@H]1O; experiment: ATP hydrolysis by Cet1(201-549)p; type: biochemical, Saccharomyces cerevisiae; conditions: other: ATP hydrolysis by the truncated enzyme; pH 7.0; 30.0 °C
Description: (FIG. 8A) Protein titration. Reaction mixtures (10 μl) containing 50 mM Tris HCl (pH 7.0), 5 mM DTT, 2 mM MnCl2, 1 mM [γ^32 P]ATP, and either Cet1p, Cet1(201-549)p, or Cet1(246-549)p were incubated for 15 min at 30° C. Pi release is plotted as a function of input protein. (FIG. 8B) Kinetics. Reaction mixtures (100 μl) containing 50 mM Tris HCl (pH 7.0), 5 mM DTT, 2 mM MnCl2, 1 mM [γ^32 P]ATP, and either 8, 16, or 32 nM Cet1p were incubated at 30° C. Aliquots (10 μl ) were withdrawn at the times indicated and quenched immediately by the addition of […] of 5 M formic acid. Pi release is plotted as a function of time. (FIG. 8C) Hydrolysis of [α^32 P]ATP. Reaction mixtures (100 μl) containing 50 mM Tris HCl (pH 7.0), 5 mM DTT, 2 mM MnCl2, 1 mM [α^32 P]ATP, and 100 ng of Cet1p were incubated at 30° C. Aliquots (10 μl) were withdrawn at the times indicated and quenched with formic acid. The products were analyzed by TLC. The levels of [α^32 P]ADP (o) and [α^32 P]AMP (q) are plotted as a function of time. An otherwise identical reaction containing 1 mM [γ^32 P]ATP was analyzed in parallel; Pi release (.cndot.). (FIG. 8D) ATP-dependence. Reaction mixtures (20 μl) containing 50 mM Tris HCl (pH 7.0), 5 mM DTT, 2 mM MnC2, 40 pg of Cet1p, and [γ^32 P]ATP as indicated were incubated for 15 min at 30° C. Pi release is plotted as a function of ATP concentration. […]

[2] = substrate: Nc1ncnc2c1ncn2[C@@H]1O[C@H](COP(=O)(O)OP(=O)(O)OP(=O)(O)O)[C@@H](O)[C@H]1O; experiment: ATP hydrolysis by Cet1p, manganese-dependent; type: biochemical, Saccharomyces cerevisiae; conditions: other: 2 mM MnCl2, pH 7.0, 30° C., double-reciprocal plot
Description: (FIG. 8A) Protein titration. Reaction mixtures (10 μl) containing 50 mM Tris HCl (pH 7.0), 5 mM DTT, 2 mM MnCl2, 1 mM [γ^32 P]ATP, and either Cet1p, Cet1(201-549)p, or Cet1(246-549)p were incubated for 15 min at 30° C. Pi release is plotted as a function of input protein. (FIG. 8B) Kinetics. Reaction mixtures (100 μl) containing 50 mM Tris HCl (pH 7.0), 5 mM DTT, 2 mM MnCl2, 1 mM [γ^32 P]ATP, and either 8, 16, or 32 nM Cet1p were incubated at 30° C. Aliquots (10 μl ) were withdrawn at the times indicated and quenched immediately by the addition of […] of 5 M formic acid. Pi release is plotted as a function of time. (FIG. 8C) Hydrolysis of [α^32 P]ATP. […] The products were analyzed by TLC. […] An otherwise identical reaction containing 1 mM [γ^32 P]ATP was analyzed in parallel; Pi release (.cndot.). […]
The extent of ^32 Pi release from [γ^32 P]ATP during a 15 min reaction was proportional to the amount of input Cet1p protein (FIG. 8A). ^32 Pi accumulated with time over 30 min; the rate of reaction varied linearly with Cet1p concentration (FIG. 8B). From a plot of initial rate versus enzyme concentration, a turnover number of 25 s^-1 was calculated. Cet1p catalyzed the quantitative conversion of [α^32P]ATP to [α^32 P]ADP. […] No formation of [α^32 P]AMP from [α^32 P]ATP was detected, even after 20-45 min of incubation, by which time all of the nucleotide had been converted to ADP. […]

Protein | Km [1] [µM] | Km [2] [µM]
B1 | 3.3 | 
B2 |  | 2.8

From patent US6232070A, “Pharmacological targeting of mRNA cap formation” (priority 1999, dated 2001)
